Key:
[1] = target: RaTG13 假病毒 S蛋白 (sarbecovirus RaTG13); test: cell-based or functional assay
[2] = target: GD/1/2019 假病毒 S蛋白 (sarbecovirus GD/1/2019); test: cell-based or functional assay
[3] = target: WIV1 假病毒 S蛋白 (sarbecovirus WIV1); test: cell-based or functional assay
[4] = target: SARS-CoV-2 Prototype(PT)假病毒 S蛋白 (SARS-CoV-2 (Prototype), UniProt P0DTC2 14-1273); test: cell-based or functional assay
[5] = target: SARS-CoV 假病毒 S蛋白 (SARS-CoV, UniProt P59594 14-1255); test: cell-based or functional assay
[6] = target: T1, SARS-CoV-2 Prototype株(PT)RBD蛋白 (SARS-CoV-2 (Prototype), UniProt P0DTC2 319-541); test: SPR, Biacore 8K; 74 captured on protein A chip, RBD as analyte
T1 construct: domain: RBD

[7] = target: SARS-CoV RBD蛋白 (SARS-CoV, UniProt P59594 306-527); test: as above

B1: 沙贝病毒广谱人源中和抗体74 (antibody, V domains shown)
VH: QVQLVQSGAQLKKPGESLKISCKGSGYNFSRYWIAWVRHMPGKGLEVMGIIYPDDSDTRYSPSVRGQVTISADKSTSIVYLQWSSLKASDTGIYYCARFGAGMTGMPRYFDTTRWFDPWGQGTQVTVSS
VL: QSVLTQPPSVSGAPGQRVTISCLGGSSNIGAGYDVHWYQHLPGAAPKLLISGNSNRPSGVPARFSGSKSGTSASLAITGLQAEDEADYYCQSYDNDLSQVFGGGTKLTVLG
- IC50, 假病毒中和 [1]: > 100 mg/L
- IC50, 假病毒中和 [2]: 0.0028 mg/L
- IC50, 假病毒中和 [3]: 0.14 mg/L
- IC50, 假病毒中和 [4]: 0.95 mg/L
- IC50, 假病毒中和 [5]: 0.041 mg/L
- Kd [6]: < 0.0156 nM
- koff [6]: 9.52e-08 s⁻¹
- kon [6]: 640000 M⁻¹ s⁻¹
- Kd [7]: < 0.00606 nM
- koff [7]: 6.47e-06 s⁻¹
- kon [7]: 1.65e+06 M⁻¹ s⁻¹

Source: patent publication CN115850461A (INST MICROBIOLOGY CAS, dated 2023)
